Data: patent US12723078 (University of Texas, dated 2026)
Positions count from the first letter of the chain named.

Assays:
[1] = target: T1, recombinant LILRB1 (human, UniProt Q8NHL6 24-461); experiment: ELISA, coated recombinant LILRB1, antibody titration;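 note: serially diluted anti-LILRB1 antibodies incubated 60 min at 37 °C on plates coated with 50 ng/well recombinant protein, TMB colorimetric development read as absorbance at 450 nm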
T1 construct: LILRB1-Fc proteins were also made; also called LILRB1 recombinant proteins
T1 sequence (Q8NHL6 24-461 limits assumed): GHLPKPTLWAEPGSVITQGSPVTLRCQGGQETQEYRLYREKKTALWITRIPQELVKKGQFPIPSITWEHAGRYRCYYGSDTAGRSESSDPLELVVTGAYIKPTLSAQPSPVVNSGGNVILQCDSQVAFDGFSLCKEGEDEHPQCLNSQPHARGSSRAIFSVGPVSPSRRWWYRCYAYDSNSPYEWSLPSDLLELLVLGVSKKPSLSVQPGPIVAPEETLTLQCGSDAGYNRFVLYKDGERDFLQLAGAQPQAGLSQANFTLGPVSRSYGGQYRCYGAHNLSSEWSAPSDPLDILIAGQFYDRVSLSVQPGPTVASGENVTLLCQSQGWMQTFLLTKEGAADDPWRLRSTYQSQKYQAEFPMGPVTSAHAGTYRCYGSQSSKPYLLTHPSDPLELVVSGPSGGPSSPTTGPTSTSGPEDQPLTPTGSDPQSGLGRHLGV
Method: ELISA. LILRB1 recombinant proteins (50 ng/well, 100 μL per well) were coated on Corning 96-well ELISA plates at 37° C. for 4 hrs. Plates were blocked for 2 hrs at 37° C. with 5% non-fat milk. After washing with PBST, 100 μL of serial diluted anti-LILRB1 antibodies were added and incubated for 60 min at 37° C. […] Plates were washed again with PBST for another 5 times, then the immunoreactions were developed with TMB substrates (Sigma, Cat #T0440) and stopped by the addition of 2 M H_2SO_4 before the plate was read at 450 nm.

[2] = target: T2, human LILRB1 recombinant protein (human, UniProt Q8NHL6 24-461); experiment: ELISA, B cell supernatant
T2 construct: The ELISA method says only 'LILRB1 recombinant proteins' coated on plates; also called leukocyte immunoglobulin-like receptor subfamily B member 1
T2 sequence (Q8NHL6 24-461 limits assumed): as above

B1: B1-#28 (antibody, V domains shown)
VH: EQSLEESGGGLVKPGASLTLTCKASGFSFSSDYDMCWVRQAPGKGLEWIGCIVTGFSGRIYYATWARGRFTFSRTSSTTLTLQMTSLTAADTATYFCARDSGNYNWDLWGPGTLVTISS
VL: ELDLTQTPTSVSAAVGGTVTIKCQASQSISDYLSWYQQKPGQPPKLLIYRASTLASGVPSRFKGSGSGTEFTLTISDLECADAATYYCQSNYYGSQGCTFGGGTEVEIK
notes: recombinant rabbit IgG
B1 was tested. Which EC50 [1] did it give?
The EC50 was 0.0242 µg/mL.

B2: B1-#15 (antibody, V domains shown)
VH: EQSVEESGGDLVKPGASLTLTCTASGFSSSSSAYMCWVRQAPGKGLEWIACIFIGSGSDSYYATWAKGRFTISKTSSTTVTLQMTSLTAADTATYFCARNTYDWNGYIYGPCYFGLWGPGTLVTISS
VL: ELDLTQTPSSVEAAVGGTVTIKCQASQSIYNYLAWYQQKPGHSPKLLIYDVSKLASGVSSRFKGSGSGTEFTLTISDLECADAATYYCQSYYGNTVSFTFGGGTEVEIK
notes: recombinant rabbit IgG
B2 was tested. Which EC50 [1] did it give?
Its EC50 is 0.0093 µg/mL.

B3: mAb of B cell clone 72 (supernatant) (antibody, V domains shown)
VH: QSVKESGGGLVQPEGSLALTCKASGIDLSNYWYMCWVRQAPGKGLEWIGCVATDSSRTHYATWAKGRFTVSKTSSTTVTLQMTSLTAADTATYFCARGSGASTNGVWWVMGDGMDLWGPGTLVTISS
VL: ELVMTQTPSSVSAAVGGTVTIKCQASPSISTYLSWYQQKPGQPPKRLINRASTLASGVPPRFKGSGAGTQFTLTISDLECADAATYYCQNNYHSGSSNGGGVAFGGGTEVEIK
notes: rabbit; also called B1-#72-1
With B3 as the binder, how does the OD450 [2] read?
The OD450 was 2.25 OD450.

B4: B1-#175 (antibody, V domains shown)
VH: ESEGGLVKPGGTLTLTCKVSGIDFNSYKYYYMCWVRQAPGKGLEWIGCMSTASRNIYYASWAKGRFTISETSSTSVTLQMTTLTAADTATYFCAKSHGGDGGYGVVLWGPGTLVTISS
VL: ELVMTQTPSSVSAAVGDTLTINCQASETISNRLAWYQQKPGQPPKLLIYSASTLESGVPSRFRGSGSGTQFTLTISDLECADAATYYCQSIRSSSGVVHPNTFGGGTEVEIK
notes: recombinant rabbit IgG
Which EC50 [1] does the source give for B4 here?
The EC50 was 0.0053 µg/mL.

B5: B1-#38 (antibody, V domains shown)
VH: EQSVEESEGGLVQPEGSLTLTCTASGFSFSNDYWICWVRQAPGKGLEWIGCGHIGSFRTTYYASWAKGRFSISKTSSTTVTLQMTSLTGADTATYFCARSPYDDGYGGFTFNLWGPGTLVTISS
VL: ELDMTQTPSSVEAAVGGTVTVKCQVSQSIGNAIAWYQQKPGQPPKLLIYKASTLASGVPSRFKGSGSGTEFTLTISDLECADAATYYCQNYYYSNTNSFGGGTEVVVK
notes: recombinant rabbit IgG
How did the EC50 [1] turn out when B5 was run?
The EC50 was 0.181 µg/mL.

B6: B1-#56 (antibody, V domains shown)
VH: QSLEESGGDLVQPEGSLTLTCTASGFSFSINLYMCWVRQAPGKGLEWIACIYGNNNANTYYTTWAKGRFTISKTSPTTVTLQMTSLTGADTATYFCARDTAAYYAFSLWGPGTLVTISS
VL: ELVMTQTPSSSSAAVGGTVTIKCQASQSIGSRFAWYQQKPGQRPKLLIYEASKLPSGVPSRFKGSGSGTEFTLTISDLECADAAIYYCQCTYYESSSGGGFGGGTEVVVK
notes: recombinant rabbit IgG
How did the EC50 [1] turn out when B6 was run?
The EC50 was 0.0438 µg/mL.

B7: B1-#79 (antibody, V domains shown)
VH: QSLEESGGGLVQPEGSLTLTCTVSGFSFSSSWYMCWVRQAPGKGLEWIACIYTLRSGAAHYANWAKGRFTISKASSTTVTLQMNSLTAADTATYFCARATYAYAGAGDLWGPGTLVTVSS
VL: ELVLTQTPSSVSAAVGGTVTINCQASEDIDRYLAWYQQKPGQRPKLLIVDASTLPSGVPSRFKGSGSGTEFTLTISDLECADGATYYCQSYDNSDNNGFGGGTEVVVK
notes: recombinant rabbit IgG
Which EC50 [1] does the source give for B7 here?
Its EC50 is 0.0154 µg/mL.

B8: mAb of B cell clone 79 (supernatant) (antibody, V domains shown)
VH: B7 VH
VL: B7 VL
notes: rabbit; also called B1-#79
Which OD450 [2] does the source give for B8 here?
Its OD450 is 2.32 OD450.

B9: B1-#202-2 (antibody, V domains shown)
VH: SQSLEESGGGLVKPGASLTLTCKGSGFSFNGDYYMCWVRQTPGKGLEWIGCIYAAGDDTYYATWAKGRFTISKTSSTTVTLQMTSLTAADTATYFCARDQADSYAFGLWGPGTLVTISS
VL: ELVLTQTASPVSGAVGGTVTIKCQASQNIYSNLAWYQQKPGQPPKLLIYSASKLASGVPSRFKGSGSGTEYTLTISGVQCEDAATYYCQSYYYTASADTTFGGGTEVEIK
notes: recombinant rabbit IgG
For B9, which EC50 [1] is on record?
The EC50 was 0.0594 µg/mL.

B10: mAb of B cell clone 74 (supernatant) (antibody, V domains shown)
VH: QSLEESGGGLVKPGASLTLTCTASGFSLNRYYMCWVRQAPGKGLEWIGCIYSGSGSTYYASWAKGRFTISKTSSTTVTLQMTSLPAADTATYFCGRLDYRVIYAFNLWGPGTLVTISS
VL: ELVLTQTPASVSAAVGGTVTINCQASQSIGSGNLAWYQQKPGQPPKLLIYLASTLASGVPPRFKGSGSGTEFTLTISDLECDDAATYYCQYTYYGTTYDNAFGGGTELEIK
notes: rabbit; also called B1-#74
With B10 as the binder, how does the OD450 [2] read?
Its OD450 is 2.4 OD450.

B11: B1-#58-1 (antibody, V domains shown)
VH: EQSLEESGGDLVKPGASLTLTCTASAFSFSSSSWICWVRQAPGKGLEWIACIYGGSVGTTYYASWAKGRFTISKPSSTTVTLQMTSLAAADTATYFCATNTDSSRSYYNLWGPGTLVTISS
VL: ELVLTQTPSSVEVAVGGAVTIKCQASHIITNYLAWYQQRPGQPPKLLIYDASKLASGVPSRFKGSGSGTEFTLTISDLECADAATYYCQNYLYFSSGDWNVFGGGTEVVVK
notes: recombinant rabbit IgG
Which EC50 [1] does the source give for B11 here?
The EC50 was 0.0171 µg/mL.

B12: mAb of B cell clone 58 (supernatant) (antibody, V domains shown)
VH: B11 VH
VL: B11 VL
notes: rabbit; also called B1-#58-1
With B12 as the binder, how does the OD450 [2] read?
Its OD450 is 2.26 OD450.

B13: B1-#83 (antibody, V domains shown)
VH: B11 VH with E5K, G58A, S64T, A88P, I119V
VL: B11 VL with V3D
notes: recombinant rabbit IgG
For B13, which EC50 [1] is on record?
Its EC50 is 0.0155 µg/mL.

B14: mAb of B cell clone 83 (supernatant) (antibody, V domains shown)
VH: B11 VH with E5K, G58A, S64T, A88P, I119V
VL: B11 VL with V3D
notes: rabbit; also called B1-#83
How did the OD450 [2] turn out when B14 was run?
The OD450 was 2.32 OD450.

B15: B1-#160 (antibody, V domains shown)
VH: QEQLVESGGGLVQPEGSLTLTCKASGIDFSSGYWICWVRQAPGKGLELIACIFTSSGTTYYASWAKGRFTISKTSSTTVTLQMTSLTAADTATYFCARDIYSYGMDLWGPGTLVTVSS
VL: ELDLTQTPASVSAAVGGTVTIKCQASQSISSSYLAWYQQKPGQPPKLLIYSASSTASGVPSRFKGSGSGTQFTLTISDLECADAATYYCQSTYISSSKYGAVFGGGTELEIK
notes: recombinant rabbit IgG
How did the EC50 [1] turn out when B15 was run?
The EC50 was 0.0285 µg/mL.

B16: mAb of B cell clone 76 (supernatant) (antibody, V domains shown)
VH: EQSVEESGGGLVQPEGSLTLTCTASGFSFSGSCDMSWVRQAPGKGLEWIACIVLSNGNTYYAGWAQGRFTISKISSTTVTLEMTSLTAADTATYFCARERYPGAFSSGLDLWGQGTLVTVSS
VL: ELDLTQTPSPVSAAVGGTVTINCQASQIVANGRLAWYQQKPGQPPKLLIYATSTLASGVPSRFKGSGSGTQFTLTINGVQCDDAATYYCQGAYSSGDVRTFGGGTEVVVK
notes: rabbit; also called B1-#76
B16 was tested. Which OD450 [2] did it give?
Its OD450 is 2.14 OD450.

B17: B1-#220 (antibody, V domains shown)
VH: QSVEESGGGLVQPEGSLTLTCTASGFSFSGIVYMCWVRQAPGKGLEWIACAFVGSGGSTYYATWATGRFTISKTSSTTVTLQMTSLTAADTATYFCAKSYNYNGLGLWGPGTLVTVSS
VL: ELDMTQTPASVSAAVGGTVTIKCQASQSITNALAWYQQKPGQPPKLLIYRASTLASGVSSRFKGSGSGTEFTLTISDLECADAATYYCQCSYYGSTYFGSPFGGGTEVEIK
notes: recombinant rabbit IgG
B17 was tested. Which EC50 [1] did it give?
Its EC50 is 0.0106 µg/mL.
